Measurements taken from the nanobody polyreactivity screen of Harvey et al. (2022).

test: yeast display, Sf9 membrane polyspecificity reagent, FACS + sequencing; frameworks hold sequencing errors
How it was run: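 In a synthetic yeast display library (Saccharomyces cerevisiae BJ5465), nanobody expression was induced with galactose for 36–48 hours. FACS gates were set low and high (top ~1%) using anti-HA fluorescence for expression and streptavidin fluorescence for binding of the Sf9 membrane reagent. Each polyreactivity label is drawn from the gate of origin.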

Q: Which “polyreactivity (PSR sort gate)” value does the source give for “QVQLVESGGGLVQAGGSLRLSCAASGITFYIYAMGWSRQAPGKEREFVASITWRGGSTYYADSVKGRFTISRDNAKNTVYLQMNSLKPEDTAVYYCNAEYSSSRYWYYDYWGQGTQVTVSS” here?
A: The value was “high polyreactivity”.

Q: Which “polyreactivity (PSR sort gate)” value does the source give for “QDQLVESGGGLVQAGGSLRLSCAAYGIIFWDNAMGWYRQAPGKERELVASINYSGGSTYYADSVKGRFTISRDNAKNTVYLQMYSLKPEDTAVYYCAARTVTLDDWDYAYDYWGQGTQVTVSS” here?
A: The value was “low polyreactivity”.

Q: For “QVQLVESGGGLVQAGGSLRLSCAASGFTFARYAMGWYRQAPGKERELVAAITYSGGRTYYADSVKGRFTISRDNAKNTVYLQMNSLKPEDTAVYYCAARLSKRSGYYYWGQGTQVTVSS”, which “polyreactivity (PSR sort gate)” value is on record?
A: Its value is “high polyreactivity”.

Q: With “QVQLVESGGRLVQAGGSLRLSCAASGRTFEIYSMGRYRHAPGKERELVAAITSGGSTYYADSVKGRFTISRDNAKNTVYLQMNSLKPEDTAVYYCNAYLYYDAHGVDYWGQGTQVTVSS” as the sequence, how does the “polyreactivity (PSR sort gate)” value read?
A: The value was “high polyreactivity”.

Q: With “QVQLVESGGGLVQAGGSLRLSCAASGFIFGGYAMVWYRQAPGKERELVAAISSSGGSTYYADSVTGRFTISRDNAKNTVSLQMNSLKPEDTAVYYCAIVGWSRRYYYWGQGTQVTLSS” as the sequence, how does the “polyreactivity (PSR sort gate)” value read?
A: The value was “high polyreactivity”.

Q: With “QVQLVESGGGLVQAGGSLRLICAASGITTRSNAMGWYRQAPGKERDFVAAITSRGGSTYYAYSVKGRFTISRDNAKNTVYLQMNSLKPEDTAVYYCAKGKYPDKKSRHVTLYDYWGQGTQVTVSS” as the sequence, how does the “polyreactivity (PSR sort gate)” value read?
A: The value was “high polyreactivity”.

Q: Which “polyreactivity (PSR sort gate)” value does the source give for “QVQLVESGGGLVQAGGSLRLSCAASGRTFKVYAMGWYRQAPGKERELVASINRGSSTYADSVKGRFTISRDNAKNTVYLQMNSLKPEDTAVYYCAARWWRQSRYYYWGQGTQVTVSS” here?
A: The value was “high polyreactivity”.

Q: For “QVQLVESGGGLVQAGGSLRLSCASSGSIFVLNAMGWYRQAPVKESELVAGITYSGGSTYYADSVKGRFTISRDNAKNTVYLQMNSLKPEDTAVYYWSAPVRRYPYPGRFYYWGQGTQVTVSS”, which “polyreactivity (PSR sort gate)” value is on record?
A: The value was “low polyreactivity”.

Q: With “QVQLVESGGGLVQAGGSLRLSCAASGRTFRYYAIGWYRQAPGKERELVATISKSGGSTYYADSVKGRFTISRDNAKNTVYLQMNSLKPEDTAVYYCAAVGPYRWYDYWGQGTQVTVSS” as the sequence, how does the “polyreactivity (PSR sort gate)” value read?
A: Its value is “high polyreactivity”.

Q: For “QVQLVESGGGLVQAGGSLRLSCAASGFNFAIYAMGWYRQAPGKERELVAAISSSGGSTYYADSVKGRFTISRDNAKNTVYLQMNSLKPEDTAVYYCNADWSLYWLDYWGQGTQVTVSS”, which “polyreactivity (PSR sort gate)” value is on record?
A: Its value is “high polyreactivity”.

Q: Which “polyreactivity (PSR sort gate)” value does the source give for “QDQLVESGGGLVQAGGSLRLSCAASGFIFSQYAMGWYRHAPGKERELVAAISTSGGSTYYADSVKGRFTISRDNAKNTVYLQMNSLKPEDTAVYYCAAARITRGRRYDYWGQGTQVTVSS” here?
A: The value was “high polyreactivity”.

Q: Which “polyreactivity (PSR sort gate)” value does the source give for “QVQLVESGGGLVQAGGSLRLSCAASGSIFAGYAMGWYRQAPGKERELVAVISSTGSTYYADSVKGRFTISRDNAKNTVYLQMNSLKPEDTAVYYCAAGDVGYSYYRIYSRMDYWGQGTQVTVSS” here?
A: Its value is “low polyreactivity”.

Q: With “QVQLVESGGGLVQAGGSLRLSCAASGYIFSYNAMGWYRQAPGKERELVAAITGDSGTYYADSVKGRFTISRDNAKNTVYLQMNSLKPEDTAVYYCATDPYIFPVFYDLYWGYNYWGQGTQVTVSS” as the sequence, how does the “polyreactivity (PSR sort gate)” value read?
A: The value was “low polyreactivity”.

Q: With “QVQLGESGGGLVQAGGSLRLSCAASGSILRTYTMGWYRPAPGKERELVAAISSSGGRTYYADSVKGRFTISRDNAKNTVYLQMNSLKPEDTAVYYCNAGGYRYRSYDYWGQGTQVTVSS” as the sequence, how does the “polyreactivity (PSR sort gate)” value read?
A: The value was “high polyreactivity”.

Q: For “QVQLVESGGGLVQAGGSLRLSCAASGSTFPYYAMGWYRQAPGKEREFVAAISSSGGSTYYADSVKWRFTISRDNAKNTVYLQMNSLKPEDTAVYYCAAQGARRNYYRYGTYTNRRYDYWGQGTQVTVSS”, which “polyreactivity (PSR sort gate)” value is on record?
A: Its value is “high polyreactivity”.

Q: Which “polyreactivity (PSR sort gate)” value does the source give for “QVQLVESGGGLVQAGGSLRLSCAASGLIFQYYAMGWYRQAPGKERELVASISGSGSSTYYADSVKGRFTISRDNEKNTVYLQMYSLKPEDTAVYYCAAGWGRGWYDYWGQGTQVTVSS” here?
A: The value was “high polyreactivity”.

Q: With “QVQLVESGGGIVQAGGSLRLSCAASGSIFYHNAMGWYRQAPGKERELVAAITGSGGSTYYADSVKGRFTISRDNAKNTVYLQMNSLKPEDTAVYYCAADGYTKWWISWGYDYWGQGTQVTVSS” as the sequence, how does the “polyreactivity (PSR sort gate)” value read?
A: Its value is “low polyreactivity”.

Q: With “QVQLVESGGGLVQAGGSLRLSCAASGFTLYVYDMGWYRQAHGKERELVAAINGGGSTNYADSVKGRFTISRDNAKNTVYLQMNSLKPEDTAVYYCAAEDAYGRDVYYGSDYWGQGTLVTVSS” as the sequence, how does the “polyreactivity (PSR sort gate)” value read?
A: The value was “low polyreactivity”.

Q: Which “polyreactivity (PSR sort gate)” value does the source give for “QVQLVESGGGLVQAGGSLRLSCAASGSTLEPNAMGWYRQAPGKERELVAAITIGGSTYYADSVKGRFTISRDNAKNTVYLQMNSLKPEDTAVYYCAAKSTVQRRRHTNYDYWGQGTQVTVSS” here?
A: Its value is “high polyreactivity”.

Q: For “QVQLVESGGGLVQAGGSLRLSCAASGSISYSYAMGWYRQAPGKERELVAAISWRGVSTYYADSVKGRFTISRDNAKNTVYLQMNSLKPEDTAVYYCNAVHHYPEHIGGGYWGQGTQVTVSS”, which “polyreactivity (PSR sort gate)” value is on record?
A: Its value is “low polyreactivity”.

Q: Which “polyreactivity (PSR sort gate)” value does the source give for “QVQLVESGGGIVQAGGSLRLSCAASGSIFGANAMVWYRQAPGKERELVAAISRRGGSTYYADSVKGRFTISRDNAKNTVYLQMNSLKPEDSAVYYCNTYPQSLGVKYGYWGQGTQVTVSS” here?
A: Its value is “high polyreactivity”.

Q: With “QLQLAESGGGLVQAGGSLRLSCAASGSTFEINAMGWYRQAPWKERELVAAISKRGGNTYYADSVKGRFTISRDNAKNTVYLQMNSLKPEVTAVYYCSADSDSHYFFYVRWVGERYEYWGQGTQVTVSS” as the sequence, how does the “polyreactivity (PSR sort gate)” value read?
A: The value was “high polyreactivity”.

Q: Which “polyreactivity (PSR sort gate)” value does the source give for “QVQLVESGGGLVQAGGSLRLSCAASGFTFEYYAMGWSRQAPGKETELVATITWNGGSTYYADSVKGRFTISRDNAKNTVYLQMNSLKPVDTAVYYCAADEQAYYVRRFDYWGQCTQVTVSS” here?
A: Its value is “low polyreactivity”.

Q: Which “polyreactivity (PSR sort gate)” value does the source give for “QVQLVESGGGLVQAGGSLRLSCAASGSILIYNAMAWYRQAPGKEMQLVAGISRRGASTYYADSVKGRFTISRDMAKNTVYLPMNSLKPEDTAVYYCAALGKYIVAWSGDYWGQGTQVNVSS” here?
A: The value was “low polyreactivity”.

Q: With “QVQLVESGGGLVQAGGSLRLSCAASGRILRPNAMGWYRQAPGKEREMVAAISVSGGRTYYADSVKGRFTISRDNAKNTVYLQMNSLKPEDTAVYYCAAKYKRGYDYWGQGTQVTVSS” as the sequence, how does the “polyreactivity (PSR sort gate)” value read?
A: The value was “high polyreactivity”.

Q: Which “polyreactivity (PSR sort gate)” value does the source give for “QVQLEESAGRLVQAGGSLRLSCAASGFIISPYAMGWYRQAPGKERELVAAISWSGVYTYYADTVKGRFTISRDNAKNTVYLQMNSLKPEDSAVYYCATYGTVYYWGQGTQVTVST” here?
A: The value was “high polyreactivity”.

Q: Which “polyreactivity (PSR sort gate)” value does the source give for “QVQLVESGGGLVQAGGSLLLSCAASGFTFGSYAMGLYRQAPGKERELVARITRGGNTYYADSVKGRFTISRDNAKNTVYLQMNSLKPVDTAVYYCNAYGRVSPLYQPYGNDAQGYYWGQGTQVTVSS” here?
A: The value was “high polyreactivity”.

Q: Which “polyreactivity (PSR sort gate)” value does the source give for “QVQLVESGGGLVQAGGSLRLSCAASGFTFYRYTMGWYIQAPGKERELVAAISARGVSTYYADSVKGRFTISRDIAKNTVYLQMNSLKPEDTAVYYCYVSRYDSWGQGTQVTVSS” here?
A: Its value is “high polyreactivity”.

Q: Which “polyreactivity (PSR sort gate)” value does the source give for “QVQLVETGGGLVQAGGSLRLSCAASGRTFLDYTMGWYRQAPGKERELVAAIRTSAGSTYYADSVKGRFTISRDNAKNTVYLQMNSLKPEDTAVYYCAKRQRGYFYEYYLYYSWGQGTQVTVSS” here?
A: Its value is “low polyreactivity”.

Q: Which “polyreactivity (PSR sort gate)” value does the source give for “QVQLVESGGGLVQAGGSLRLSCAASGSIFNYYAMGCYRQAPGKERELVAAIETTGGSTYYADSVKGRFTNSRDNAKNTVYLQMNSLKPEDTAVYYCAATWGKPWYYEYDYWGQGTQVTVSS” here?
A: Its value is “low polyreactivity”.

Q: With “QVQLVESGGGLVQAGGSLRLSCAASGIIFYYYGMGWYSQAPGKERELVAAISTGGSTNYADSVKGRFTISRDNAKNTVYLQMNRLKPEDTAVYYCAVTYWWYYGYDYWGQGTQVTVSS” as the sequence, how does the “polyreactivity (PSR sort gate)” value read?
A: The value was “low polyreactivity”.

Q: For “QVQLVESGGGLVQAGGSLRLSCAASGSTFVFYTMGWYRQAPGKEREFVASISGSGGSTYYADSVKGRFTISRDNAKNTVYLQMNSLKPEVSAVYYCAAGYPYYYWTPYYYWGQGTQVTLSS”, which “polyreactivity (PSR sort gate)” value is on record?
A: The value was “high polyreactivity”.

Q: Which “polyreactivity (PSR sort gate)” value does the source give for “QVQLVESGGGLVQAGGSLRLSCAASGYTFTIYAMGWSRQAPGKERESVASISIDGSTYYADSVKGRFTISRDNAKNTVYLQMNSLKPEDTAGYYCAADYYYYNPGFDYWGQGTQVTVSS” here?
A: The value was “low polyreactivity”.

Q: Which “polyreactivity (PSR sort gate)” value does the source give for “QVQLVESGGGLVQAGGSLRLSCAASGFTFGTYAMGWYRQAPGKERELVAAITDGGGSTYYADSVKGRFSISRDNAKNTVYLQMNSLKPEDTAVYYCAAEFGYGWYTWLTGNDYWGQGTQVTVSS” here?
A: Its value is “low polyreactivity”.

Q: For “QVQLVESRGGLVQAGGSLRLSCAASGLIFLGYAMGWYRQAPGKERELVASIRTGGSTSYADSVKGRFTISRDNAKNTVYLQMNSLKPEDTAVYYCAADRGRPNLPGDYWGQGTQVTVSS”, which “polyreactivity (PSR sort gate)” value is on record?
A: Its value is “low polyreactivity”.

Q: With “QVQLVESGGGLVQAGGSLRLSCAASGSIFVWYAMGWYRQAPGKERELVARITSGGRTNYADSVKGRFTISRDNAKNTVYLQMNSLKPEDTAVYDCAAGRVSWSPYYYWGQGTQVNVSS” as the sequence, how does the “polyreactivity (PSR sort gate)” value read?
A: The value was “high polyreactivity”.

Q: With “QVQLVESGGGLVQAGGSLRLSCAASGFIFYRYAMGWYRQAPGKEREFVASISGSGGRTYFADSVKGRFTISRDNAKNTVYLQMNSLKPEDTAVYYCNVVSKSRISQYVGYSYDYWGQGTQVTVSS” as the sequence, how does the “polyreactivity (PSR sort gate)” value read?
A: The value was “high polyreactivity”.

Q: Which “polyreactivity (PSR sort gate)” value does the source give for “QVQLVESGGGLVQAGGSLRLSCAAYGRNFTYYAMGWYRQAPGKERELVAANSRSGGRTYYADSVKGRFTISRDNAKNTVYLQMNSLKPEDTGVYYCAADRLSLRAYDYWGQGTQVNVSS” here?
A: The value was “high polyreactivity”.

Q: For “QVQLVESGGGLVQAGGSLRLSCAASGRTFYRNAMGWYRQAPGKERELVAAISNGGSTNYADSVKGRFTISRDNAKNTVYLQMNSLKPEDTAVYYCAKAVIRWRGSGQHGYFWYDYLGQGTQVTVSS”, which “polyreactivity (PSR sort gate)” value is on record?
A: The value was “high polyreactivity”.

Q: For “QVQLVESGGGLVQAGGSLRLSCAASGRTFLVYAMGWYRQAPGKERDLVAAITGSGTSTYYADSVKRRFTISRDNGKNTVYLQMNSLKAEDTAVYYCAAEVRLGTYGYDYDYWGQGTQVTVSS”, which “polyreactivity (PSR sort gate)” value is on record?
A: The value was “high polyreactivity”.
